Measured values: publication PMC9508527, “Two-component carnitine monooxygenase from Escherichia coli: functional characterization, inhibition and mutagenesis of the molecular interface” (Bioscience Reports, 2022)
Positions count from the first letter of the chain named.

Legend:
Assay in all cases: cell-based or functional assay
YeaW variant R83K = target: T1, YeaW variant R83K (E. coli, UniProt P0ABR7 1-374, R83K)
T1 sequence (looked up): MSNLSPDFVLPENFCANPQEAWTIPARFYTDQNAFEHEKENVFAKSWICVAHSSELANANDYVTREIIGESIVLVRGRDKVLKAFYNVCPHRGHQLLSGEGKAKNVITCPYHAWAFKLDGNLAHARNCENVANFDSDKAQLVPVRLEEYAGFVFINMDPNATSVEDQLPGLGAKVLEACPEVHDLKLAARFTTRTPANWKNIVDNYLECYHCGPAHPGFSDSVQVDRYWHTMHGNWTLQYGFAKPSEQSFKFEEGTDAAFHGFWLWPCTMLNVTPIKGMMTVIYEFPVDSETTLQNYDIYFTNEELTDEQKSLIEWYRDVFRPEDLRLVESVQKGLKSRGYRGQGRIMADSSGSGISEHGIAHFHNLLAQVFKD

YeaW variant E330S = target: T2, YeaW variant E330S (E. coli, UniProt P0ABR7 1-374, E330S)
T2 sequence (looked up): T1 sequence (looked up) with K83R, E330S

YeaW variant K104E = target: T3, YeaW variant K104E (E. coli, UniProt P0ABR7 1-374, K104E)
T3 sequence (looked up): T1 sequence (looked up) with K83R, K104E

YeaW variant K138E = target: T4, YeaW variant K138E (E. coli, UniProt P0ABR7 1-374, K138E)
T4 sequence (looked up): T1 sequence (looked up) with K83R, K138E

YeaW variant D221K = target: T5, YeaW variant D221K (E. coli, UniProt P0ABR7 1-374, D221K)
T5 sequence (looked up): T1 sequence (looked up) with K83R, D221K

YeaW variant K117E = target: T6, YeaW variant K117E (E. coli, UniProt P0ABR7 1-374, K117E)
T6 sequence (looked up): T1 sequence (looked up) with K83R, K117E

YeaW variant K138S = target: T7, YeaW variant K138S (E. coli, UniProt P0ABR7 1-374, K138S)
T7 sequence (looked up): T1 sequence (looked up) with K83R, K138S

B1: YeaX, reductase component of carnitine monooxygenase from E. coli (enzyme, UniProt P76254 1-321, looked up)
chain: MSDYQMFEVQVSQVEPLTEQVKRFTLVATDGKPLPAFTGGSHVIVQMSDGDNQYSNAYSLLSSPHDTSCYQIAVRLEENSRGGSRFLHQQVKVGDRLTISTPNNLFALIPSARKHLFIAGGIGITPFLSHMAELQHSDVDWQLHYCSRNPESCAFRDELVQHPQAEKVHLHHSSTGTRLELARLLADIEPGTHVYTCGPEALIEAVRSEAARLDIAADTLHFEQFAIEDKTGDAFTLVLARSGKEFVVPEEMTILQVIENNKAAKVECLCREGVCGTCETAILEGEADHRDQYFSDEERASQQSMLICCSRAKGKRLVLDL
L-carnitine depletion activity (wild type = 100%) (YeaW variant R83K): 76%
O2 depletion activity (wild type = 100%) (YeaW variant R83K): 79%
L-carnitine depletion activity (wild type = 100%) (YeaW variant E330S): 92%
O2 depletion activity (wild type = 100%) (YeaW variant E330S): 85%
L-carnitine depletion activity (wild type = 100%) (YeaW variant K104E): 6%
O2 depletion activity (wild type = 100%) (YeaW variant K104E): 12%
L-carnitine depletion activity (wild type = 100%) (YeaW variant K138E): 100%
O2 depletion activity (wild type = 100%) (YeaW variant K138E): 102%
L-carnitine depletion activity (wild type = 100%) (YeaW variant D221K): 81%
O2 depletion activity (wild type = 100%) (YeaW variant D221K): 76%
L-carnitine depletion activity (wild type = 100%) (YeaW variant K117E): 63%
O2 depletion activity (wild type = 100%) (YeaW variant K117E): 75%
L-carnitine depletion activity (wild type = 100%) (YeaW variant K138S): 96%
O2 depletion activity (wild type = 100%) (YeaW variant K138S): 97%
